From publication PMC10995120

Biological target: GFP-CD16a (Homo sapiens) (UniProt P08637)
Experiment: SPR

Chain of UniProt P08637 (P08637 other isoform, or with tags, fused parts or gaps): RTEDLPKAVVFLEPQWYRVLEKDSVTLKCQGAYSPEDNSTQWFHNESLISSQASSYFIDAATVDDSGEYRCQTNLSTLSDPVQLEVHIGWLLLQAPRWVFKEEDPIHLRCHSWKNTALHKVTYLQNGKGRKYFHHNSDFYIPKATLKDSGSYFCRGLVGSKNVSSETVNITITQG

Kd: 360 nM
Substance: rituximab
